Results taken from the supplement of paper PMC6379048.
pEC50: −log10 of the molar value.

Columns and labels:
Assay in all cases: EC50 of free RNA motif oligo competing protein binding to immobilised probe
CPSF7 = biological target: T1, CPSF7 (UniProt Q8N684)
T1 sequence: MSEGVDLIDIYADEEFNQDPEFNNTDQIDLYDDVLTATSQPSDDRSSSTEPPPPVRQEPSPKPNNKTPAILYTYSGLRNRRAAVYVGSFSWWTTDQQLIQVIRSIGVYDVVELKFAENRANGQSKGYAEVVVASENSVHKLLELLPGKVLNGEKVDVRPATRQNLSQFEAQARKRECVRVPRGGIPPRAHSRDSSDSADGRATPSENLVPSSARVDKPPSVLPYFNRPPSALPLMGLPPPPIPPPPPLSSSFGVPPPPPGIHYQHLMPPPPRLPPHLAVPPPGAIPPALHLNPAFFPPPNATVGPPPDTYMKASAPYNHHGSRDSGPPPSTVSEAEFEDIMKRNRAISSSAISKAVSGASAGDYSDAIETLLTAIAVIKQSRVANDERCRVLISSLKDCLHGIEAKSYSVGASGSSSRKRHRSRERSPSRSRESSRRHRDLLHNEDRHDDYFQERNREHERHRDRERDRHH
In short: (§1)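 To obtain EC50, data were fitted with a four-parameter log-logistic model; Kd was then EC50 multiplied by a protein-dependent depletion factor. Beforehand, free RNA oligos (0 nM to 30 μM) were pre-incubated with HEK293-FT lysate (2.5 mg protein/well) for 1 h at 4°C. The lysate then spent 30 min at 4°C with the same 5′-amino-C6 oligos coupled to NHS-Sepharose beads, and bound proteins were quantified by label-free LC-MS/MS, normalised to the control.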

IFIT5 = biological target: T2, IFIT5 (UniProt Q13325)
T2 sequence: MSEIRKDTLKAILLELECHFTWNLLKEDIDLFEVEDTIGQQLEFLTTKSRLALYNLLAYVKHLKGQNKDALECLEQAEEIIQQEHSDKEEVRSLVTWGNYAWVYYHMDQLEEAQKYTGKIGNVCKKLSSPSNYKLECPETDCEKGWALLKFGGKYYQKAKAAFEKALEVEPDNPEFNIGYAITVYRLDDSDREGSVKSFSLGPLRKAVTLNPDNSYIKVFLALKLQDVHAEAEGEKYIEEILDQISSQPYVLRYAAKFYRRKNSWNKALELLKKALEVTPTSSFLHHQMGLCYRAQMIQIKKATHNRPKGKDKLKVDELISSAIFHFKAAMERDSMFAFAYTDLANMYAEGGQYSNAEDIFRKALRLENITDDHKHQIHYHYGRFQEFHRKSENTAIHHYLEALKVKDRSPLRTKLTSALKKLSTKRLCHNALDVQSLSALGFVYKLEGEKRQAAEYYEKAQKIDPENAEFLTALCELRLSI
In short: as §1

PINX1 = biological target: T3, PINX1 (UniProt Q96BK5)
T3 sequence: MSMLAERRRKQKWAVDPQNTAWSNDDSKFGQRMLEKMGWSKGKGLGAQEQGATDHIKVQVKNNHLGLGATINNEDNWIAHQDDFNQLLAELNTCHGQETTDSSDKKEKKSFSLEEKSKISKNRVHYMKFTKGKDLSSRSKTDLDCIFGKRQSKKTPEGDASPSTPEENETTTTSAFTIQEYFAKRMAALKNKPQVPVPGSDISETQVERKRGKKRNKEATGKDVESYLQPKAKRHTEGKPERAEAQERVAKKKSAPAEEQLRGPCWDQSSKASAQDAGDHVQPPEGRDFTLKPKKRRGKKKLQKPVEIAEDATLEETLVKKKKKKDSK
In short: as §1

ZRANB2 = biological target: T4, ZRANB2 (UniProt O95218)
T4 sequence: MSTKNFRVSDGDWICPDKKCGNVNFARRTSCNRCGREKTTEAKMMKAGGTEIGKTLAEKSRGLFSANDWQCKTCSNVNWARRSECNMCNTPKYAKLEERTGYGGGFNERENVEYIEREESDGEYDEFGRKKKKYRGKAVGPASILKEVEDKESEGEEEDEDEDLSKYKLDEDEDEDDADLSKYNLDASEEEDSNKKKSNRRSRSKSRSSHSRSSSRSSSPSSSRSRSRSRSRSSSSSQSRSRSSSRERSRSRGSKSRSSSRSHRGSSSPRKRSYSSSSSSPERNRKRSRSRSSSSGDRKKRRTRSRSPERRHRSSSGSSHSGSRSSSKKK
In short: as §1

TUBB2A = TUBB2A (UniProt Q13885)
In short: as §1

MRPL17 = MRPL17 (UniProt Q9NRX2)
In short: as §1

PCBP2 = PCBP2 (UniProt Q15366)
In short: as §1

MRPL11 = MRPL11 (UniProt Q9Y3B7)
In short: as §1

IGF2BP3 = IGF2BP3 (UniProt O00425)
In short: as §1

CWF19L1 = biological target: T5, CWF19L1 (UniProt Q69YN2)
T5 sequence: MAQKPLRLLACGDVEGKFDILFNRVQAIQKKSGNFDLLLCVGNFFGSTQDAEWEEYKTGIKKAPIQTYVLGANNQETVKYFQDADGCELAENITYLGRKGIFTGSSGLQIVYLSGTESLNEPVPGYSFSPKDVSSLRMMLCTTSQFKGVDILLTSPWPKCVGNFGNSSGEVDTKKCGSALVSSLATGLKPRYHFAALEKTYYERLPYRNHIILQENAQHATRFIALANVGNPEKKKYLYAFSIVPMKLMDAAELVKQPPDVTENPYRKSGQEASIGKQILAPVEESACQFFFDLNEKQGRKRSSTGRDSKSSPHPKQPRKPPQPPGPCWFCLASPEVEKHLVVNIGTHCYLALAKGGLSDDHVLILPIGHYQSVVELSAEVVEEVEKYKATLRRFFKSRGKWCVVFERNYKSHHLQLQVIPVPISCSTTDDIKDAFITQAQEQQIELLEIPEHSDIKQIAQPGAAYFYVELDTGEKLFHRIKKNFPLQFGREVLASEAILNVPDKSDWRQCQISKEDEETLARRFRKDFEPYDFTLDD
In short: as §1

IGF2BP3, sequence (O00425 whole entry): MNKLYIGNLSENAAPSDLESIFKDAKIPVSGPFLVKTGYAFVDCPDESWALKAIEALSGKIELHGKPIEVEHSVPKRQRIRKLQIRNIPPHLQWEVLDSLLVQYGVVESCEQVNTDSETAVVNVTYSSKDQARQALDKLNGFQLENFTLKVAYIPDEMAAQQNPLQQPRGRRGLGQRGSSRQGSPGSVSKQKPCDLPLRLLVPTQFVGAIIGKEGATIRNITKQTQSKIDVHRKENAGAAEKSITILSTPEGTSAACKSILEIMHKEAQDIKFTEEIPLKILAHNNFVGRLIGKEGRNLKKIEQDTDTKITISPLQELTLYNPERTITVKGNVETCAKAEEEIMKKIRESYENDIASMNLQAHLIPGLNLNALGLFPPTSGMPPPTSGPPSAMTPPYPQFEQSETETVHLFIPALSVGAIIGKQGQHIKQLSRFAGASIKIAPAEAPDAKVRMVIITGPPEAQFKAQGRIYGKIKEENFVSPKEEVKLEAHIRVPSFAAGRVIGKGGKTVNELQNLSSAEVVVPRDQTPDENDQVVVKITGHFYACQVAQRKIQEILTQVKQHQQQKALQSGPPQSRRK
TUBB2A, sequence (Q13885 whole entry): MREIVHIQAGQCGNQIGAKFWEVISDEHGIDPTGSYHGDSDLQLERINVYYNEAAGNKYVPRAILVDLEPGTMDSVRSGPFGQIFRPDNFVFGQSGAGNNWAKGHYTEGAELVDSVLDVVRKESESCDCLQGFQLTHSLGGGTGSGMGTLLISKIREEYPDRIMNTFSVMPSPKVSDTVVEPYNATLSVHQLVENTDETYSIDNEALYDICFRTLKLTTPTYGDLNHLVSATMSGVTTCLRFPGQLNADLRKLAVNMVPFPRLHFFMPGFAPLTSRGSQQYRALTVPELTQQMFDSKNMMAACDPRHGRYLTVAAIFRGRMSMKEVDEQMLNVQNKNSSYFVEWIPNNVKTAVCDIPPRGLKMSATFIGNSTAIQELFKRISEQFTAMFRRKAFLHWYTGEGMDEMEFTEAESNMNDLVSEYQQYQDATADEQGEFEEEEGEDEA
PCBP2, sequence (Q15366 whole entry): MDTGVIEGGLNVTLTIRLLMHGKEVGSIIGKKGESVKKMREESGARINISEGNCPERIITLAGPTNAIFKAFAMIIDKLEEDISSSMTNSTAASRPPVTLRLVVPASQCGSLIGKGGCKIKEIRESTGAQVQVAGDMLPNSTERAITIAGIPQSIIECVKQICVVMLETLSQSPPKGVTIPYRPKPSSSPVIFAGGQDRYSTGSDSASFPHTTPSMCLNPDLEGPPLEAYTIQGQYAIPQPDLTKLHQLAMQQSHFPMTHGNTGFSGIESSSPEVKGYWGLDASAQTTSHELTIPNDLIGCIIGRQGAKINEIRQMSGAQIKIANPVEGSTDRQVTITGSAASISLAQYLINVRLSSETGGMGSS

AAUAAA gave a pEC50 (CPSF7) of 5.05, a pEC50 (IFIT5) of 5.92 and a pEC50 (PINX1) of 5.67. The pEC50 (ZRANB2) was 5.72 and the pEC50 (TUBB2A) was 5.96.
CUGUCCU gave a pEC50 (MRPL17) of 7.28, a pEC50 (PCBP2) of 5.47 and a pEC50 (MRPL11) of 6.93. The pEC50 (IGF2BP3) was 5.42.
Sequence UAUUUAU has a pEC50 (CWF19L1) of 5.50.
